Experimental data from US7550425B2, “Diuretic peptide conjugates” (Zealand Pharma A/S, priority 2000, dated 2009).

Legend:
mouse vas deferens = experiment: Mouse vas deferens assay: inhibition of electrically-induced contraction; details: cumulative addition; data not shown
Description: The compounds of the present invention are pharmacologically active, e.g. as nociceptin agonists or partial agonists, and a useful method of showing activity is described by Hughes J., Kosterlitz H. W., Leslie F. M.: Effect of morphine on adrenergic transmission in the mouse vas deferens. Assessment of agonist and antagonist potencies of narcotic analgesics^[4]. The isolated electrically stimulated mouse vas deferens preparation has been widely used to evaluate the functional pharmacological actions of opioid agonists and antagonists in vitro^[5].
The vas deferens from male NMRI albino mice weighing 30-40 g were placed in a SCHULER organ bath Type 809, Hugo Sachs Elektronik, Germany, and perfused with a 37° C., modified Krebs solution (NaCl 6,9 g/L, KCl 0.35 g/L, KH2PO4 0.16 g/L, NaHCO3 2.1 g/L, Glucose H2O 2.0 g/L, CaCl2 2.52 mL/L). The solution was gassed with carbogen (95% O2 and 5% CO2) throughout the experiment. The tissue was electrically stimulated through two silver electrodes directly in the organ bath using a HSE Stimulator I Type 215. Stimulation of the tissue was performed by applying a supramaximal voltage (15 Volts) in trains of 10 square pulses every 60 s, each of 1 ms duration with a frequency of […]. Concentration-response curves were performed by adding test substances that relax mouse vas deferens smooth muscles cumulatively to the organ baths. The test substances used in the assay were nociceptin in an isotonic saline solution, Compound 1 (as the trifluoroacetate in an isotonic saline solution), Compound 2 (as the trifluoroacetate in an isotonic saline solution), and the hexapeptide Ac-RYYRWK-NH2 (SEQ ID NO: 1) (as the trifluoroacetate in an isotonic saline solution).

[1] = system: conscious Sprague Dawley rats; type: in vivo, rat
Procedure: In the conscious rat model, the animal is chronically instrumented with catheters in the urinary bladder, the femoral artery, and the femoral vein. The animal receives a continuous i.v. infusion with isotonic saline, 50 μl/min. Urine is collected in vials in consequtive urine collection periods of 10 min each. After two control periods, the test compound is administered and fractionated urine collections (10 min periods) are continued for at least two hours. Urinary concentrations of sodium and potassium are determined by flame photometry (Instrumentation Laboratory 943) using caesium as internal standard.
The diuretic effect of the peptide conjugates of the invention has been tested in conscious rats, where Compound 1 elicits a powerful and sustained diuretic response. Cardiovascular and renal responses produced by i.v. infusion of nociceptin (Phoenix Pharmaceuticals) and Compound 1 have been studied in conscious Sprague Dawley rats. The results are shown in FIGS. 2 to 8 wherein HR is heart rate, MAP is mean arterial pressure, V is urine flow rate, UNaV is urinary excretion rate of sodium, RSNA is renal sympathetic nerve activity expressed as % of the control level, Cosm is the osmolar clearance, and CH2O is free water clearance.
Furthermore, the effects of i.v. bolus administration of nociceptin (30 and 100 nmol/kg, Phoenix Pharmaceuticals) and nociceptin-NH2 (30 nmol/kg) on heart rate, arterial pressure and RSNA were studied in groups of 6 conscious Sprague-Dawley rats.
[…] After stabilization of urine flow rate and urinary sodium excretion, urine was collected during a 20-min control period. After this, the i.v. bolus injection was given or the i.v. infusate was switched to a solution of isotonic saline containing Compound 1 (i.v. infusion experiments). From the time of drug administration, experimental urine samples (10-min consecutive periods) were taken for 80 min.
One hour prior to the start of each experiment a food pellet (standard rodent chow) was placed within access to the rat though a hole in the rat holder. The number and time of feeding responses (i.e., times in which the rat began to eat the food pellet) was recorded before, and after drug administration. If a positive feeding response was observed, the pellet was removed from the restrainer to prevent feeding-induced alterations in heart rate and/or mean arterial pressure. At 10-min intervals, the food pellet was presented to the rat to determine the duration of the feeding response.

human ORL1 receptor [2] = biological target: T1, human ORL1 receptor (human, UniProt P41146 1-370); experiment: binding to hORL1 receptor expressed in CHO cells, one experiment
T1 construct: whole, on cells; also called hORL1 receptor; human nociceptin receptor

human ORL1 receptor [3] = biological target: T1, human ORL1 receptor; experiment: cell-based or functional assay

T1 sequence (P41146 whole entry): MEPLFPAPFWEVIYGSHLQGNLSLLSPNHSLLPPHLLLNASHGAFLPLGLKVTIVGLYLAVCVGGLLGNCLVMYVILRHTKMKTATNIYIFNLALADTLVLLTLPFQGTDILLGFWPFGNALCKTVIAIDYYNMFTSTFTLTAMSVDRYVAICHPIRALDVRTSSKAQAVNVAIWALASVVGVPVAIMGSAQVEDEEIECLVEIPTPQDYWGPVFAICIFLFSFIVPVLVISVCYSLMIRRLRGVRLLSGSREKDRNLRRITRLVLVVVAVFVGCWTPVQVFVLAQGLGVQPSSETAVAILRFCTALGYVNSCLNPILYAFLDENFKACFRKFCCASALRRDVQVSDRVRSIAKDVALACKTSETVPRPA

Question: How did the “potency order for inhibition of electrically-induced contraction of the mouse vas deferens” value (mouse vas deferens) turn out when Ac-KKKKKKRYYRWK-NH2 [Compound 2] was run?
Answer: nociceptin>Compound 1=Compound 2>>Ac-RYYRWK-NH2

Question: For CC(C)C[C@H](NC(=O)[C@H](CCCCN)NC(=O)[C@H](CCCN=C(N)N)NC(=O)[C@H](C)NC(=O)[C@H](CO)NC(=O)[C@H](CCCCN)NC(=O)[C@H](CCCN=C(N)N)NC(=O)[C@H](C)NC(=O)CNC(=O)[C@@H](NC(=O)[C@H](Cc1ccccc1)NC(=O)CNC(=O)CNC(=O)[C@@H](N)Cc1ccccc1)[C@@H](C)O)C(=O)N[C@@H](C)C(=O)N[C@@H](CC(N)=O)C(=O)N[C@@H](CCC(N)=O)C(=O)O [nociceptin, reference compound], which “heart rate, arterial pressure and RSNA” value ([1]; i.v. bolus 30 and 100 nmol/kg, data not shown) is on record?
Answer: rapid bradycardia, a hypotensive response and initial RSNA suppression

Question: And the MAP response ([1]; i.v. infusion 11 nmol/kg/min, FIG. 2)?
Answer: significantly decreases MAP

Question: Which IC50 (human ORL1 receptor [2]) does the source give for Ac-RYYRWKKKKKK-NH2 [Compound 12 Ac-Arg-Tyr-Tyr-Arg-Trp-Lys-Lys-Lys-Lys-Lys-Lys-NH2] here?
Answer: 0.15 nM

B1: Compound CE1 Ac-Arg-Tyr-Tyr-Arg-Trp-Lys-NH2 (peptide)
peptide: Ac-RYYRWK-NH2
notes: Unconjugated comparison hexapeptide; also called Ac-RYYRWK-NH2
Question: For B1, which “Efficacy EC50 (nM), inhibition of forskolin-induced cAMP formation” value (shortened to “Efficacy EC50 (nM), inhibition”) (human ORL1 receptor [3]) is on record?
Answer: 0.41 nM

Question: And the IC50 (human ORL1 receptor [2])?
Answer: 0.31 nM

Question: With Ac-RYNRWKKKKKKK-NH2 [Compound 4 Ac-Arg-Tyr-Asn-Arg-Trp-Lys-Lys-Lys-Lys-Lys-Lys-Lys-NH2] as the molecule, how does the “Efficacy EC50 (nM), inhibition” value (human ORL1 receptor [3]) read?
Answer: 91 nM

Question: Which results are given for Ac-KKKKKKKWRYYR-NH2 [Compound 6 Ac-Lys-Lys-Lys-Lys-Lys-Lys-Lys-Trp-Arg-Tyr-Tyr-Arg-NH2]?
Answer: Efficacy EC50 (nM), inhibition of forskolin-induced cAMP formation (human ORL1 receptor [3]): 135 nM; IC50 (human ORL1 receptor [2]): 115 nM

Question: With H-NEEEEERYYRWKKKKKKK-NH2 [Compound 3 H-Asn-Glu-Glu-Glu-Glu-Glu-Arg-Tyr-Tyr-Arg-Trp-Lys-Lys-Lys-Lys-Lys-Lys-Lys-NH2] as the molecule, how does the “Efficacy EC50 (nM), inhibition” value (human ORL1 receptor [3]) read?
Answer: 83 nM

Question: What about the IC50 (human ORL1 receptor [2]) of the same molecule?
Answer: 235 nM

Question: What does the source list for Ac-KYYRWKKKKKKK-NH2 [Compound 9 Ac-Lys-Tyr-Tyr-Arg-Trp-Lys-Lys-Lys-Lys-Lys-Lys-Lys-NH2]?
Answer: Efficacy EC50 (nM), inhibition of forskolin-induced cAMP formation (human ORL1 receptor [3]): 0.035 nM; IC50 (human ORL1 receptor [2]): 3.7 nM

Question: Which IC50 (human ORL1 receptor [2]) does the source give for Ac-RYYRWKAKKKKK-NH2 [Compound 11 Ac-Arg-Tyr-Tyr-Arg-Trp-Lys-Ala-Lys-Lys-Lys-Lys-Lys-NH2] here?
Answer: 0.27 nM

Question: How did the IC50 (human ORL1 receptor [2]) turn out when Ac-RYYRIKKKKKKK-NH2 [Compound 10 Ac-Arg-Tyr-Tyr-Arg-Ile-Lys-Lys-Lys-Lys-Lys-Lys-Lys-NH2] was run?
Answer: 0.51 nM
